From article doi:10.1101/2025.06.16.659917, “MTBP allosterically activates Cdk8-CycC kinase activity” (bioRxiv, 2025)

Target: T1, 6xHis-3xFLAG-Cdk8 wt (recombinant, full-length) (human, UniProt P49336 1-464)
T1 construct: Cdk8, human, full-length; Co-expressed with CycC, alone or together with MTBP(C) or Med12(N100); source: Sf9/Hi5 insect cells (baculovirus), purified (Ni-NTA, dialysis); not shown: 6xHis, N-terminal, kept
Assay: pull-down; co-expression in Sf9/Hi5 insect cells and co-purification on Ni-NTA agarose via the N-terminal 6His-tag on Cdk8; 20 mM HEPES pH 8.0, 150 mM NaCl, 2% glycerol, 0.1% Triton X-100, 0.5 mM TCEP, 20 mM imidazole; 4°C
Details: partners not purified

T1 sequence (P49336 whole entry): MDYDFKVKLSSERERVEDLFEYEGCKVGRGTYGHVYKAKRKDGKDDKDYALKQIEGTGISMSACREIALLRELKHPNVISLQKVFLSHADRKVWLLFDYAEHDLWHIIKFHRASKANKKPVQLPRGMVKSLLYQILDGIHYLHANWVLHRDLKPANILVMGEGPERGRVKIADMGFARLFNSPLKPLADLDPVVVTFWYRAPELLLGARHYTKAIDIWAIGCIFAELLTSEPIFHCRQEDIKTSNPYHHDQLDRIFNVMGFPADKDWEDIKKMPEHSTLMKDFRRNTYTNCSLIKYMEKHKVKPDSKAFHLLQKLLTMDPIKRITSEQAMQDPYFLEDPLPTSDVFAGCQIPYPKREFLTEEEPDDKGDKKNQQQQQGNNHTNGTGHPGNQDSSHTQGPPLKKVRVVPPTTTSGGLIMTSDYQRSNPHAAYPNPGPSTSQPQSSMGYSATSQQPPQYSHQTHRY

B1: Med12(N100) (recombinant Med12 residues 1-100) (domain or fragment, human, UniProt Q93074 1-100, looked up)
chain: MAAFGILSYEHRPLKRPRLGPPDVYPQDPKQKEDELTALNVKQGFNNQPAVSGDEHGSAKNVSFNPAKISSNFSSIIAEKLRCNTLPDTGRRKPQVNQKD
notes: Med12, human, residues 1-100; also called Med12-1-100; Med12(1-100); source: Sf9/Hi5 insect cells (baculovirus), co-expressed with Cdk8 and CycC, purified (Ni-NTA via Cdk8); also purified alone
Does B1 bind?
Result: binds
